In IntAct's records for PubMed 15848184:

B1: Protein EAP1 (Saccharomyces cerevisiae), P36041 (parent)
chain: MELNDPSIISSSQFSGELSDSDTAAATHKSQQAISNLFQKLAKKGREEKPIGSVESSTDSSNISVATSGNNKESNKKKNKKTAMLNFSSLTDPITNYKPMDLQYKTYAYSMNELYHLKPSLASASYEEDPLISELVRSLPKRKFWRLRMGPPDQKHANNHHFNGNNGGGSWKAGYKNGKNDERRMSRTKNMQGGKRRSQQDDEEKKIDQEMLEMDKNLQLGGDVGHSIADFEDWKAKMKELELKKLSKSKGISNSTAIAPRESASHETPTDLRPVIPRGPSSITDFLNLKRQDKKEESSQQTPGIPVGQPSLSKTSIEQVNELETNSDLGKSSSSRFSSFFNKSATSLPSLDNNNQVPSSNVSVVNNDGNSTPHQSGSRLMSFFKESRSSTPNAESQLLSASDKDNGKMQTLPQFQQQPQQMQPMAFTQHPPNNNAFFNGLLNKGKSETSTPPPPPPGLIAHQGPQFPVMGVPPNFPQRMMPPPPGLVQFQKDSKDVNKKEDRQLRQNKNPNGTRNSKGKQEETATPDLPQQQYMPPPPPPGFFPMHPNFPNGPMPPLPQGFPIPPNGMLPVTGQQPQPPYPNMMLQGNFPPNFQQGFGSNSPMPIPSIINANGKNVTNQLPPGLNSKKNIK
partner: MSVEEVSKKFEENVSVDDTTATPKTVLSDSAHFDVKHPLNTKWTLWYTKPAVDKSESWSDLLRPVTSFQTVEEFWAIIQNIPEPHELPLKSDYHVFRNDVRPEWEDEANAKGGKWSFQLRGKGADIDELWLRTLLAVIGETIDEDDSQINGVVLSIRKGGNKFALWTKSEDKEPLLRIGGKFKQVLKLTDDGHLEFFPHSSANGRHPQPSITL

Variants of: B1
Details: with if4e_yeast CDC33, P07260

effect of a mutation on the interaction	Variant
disrupting interaction	Y109A
disrupting interaction	Y109A;L114A
